Measurements: patent US20030013173A1

Columns and labels:
[1] = target: Bovine milk β1,4Gal-transferase (Sigma), mainly representing β4Gal-T1 (bovine) (UniProt P08037); test: cell-based or functional assay
[2] = target: soluble β4Gal-T2 (amino acid residues 31-372 of human UDP-galactose: β-N-acetylglucosamine β-1,4-galactosyltransferase, β4Gal-T2) (human) (UniProt O60909); test: cell-based or functional assay
Chain of soluble β4Gal-T2 (amino acid residues 31-372 of human UDP-galactose: β-N-acetylglucosamine β-1,4-galactosyltransferase, β4Gal-T2) (human) (O60909 31-372): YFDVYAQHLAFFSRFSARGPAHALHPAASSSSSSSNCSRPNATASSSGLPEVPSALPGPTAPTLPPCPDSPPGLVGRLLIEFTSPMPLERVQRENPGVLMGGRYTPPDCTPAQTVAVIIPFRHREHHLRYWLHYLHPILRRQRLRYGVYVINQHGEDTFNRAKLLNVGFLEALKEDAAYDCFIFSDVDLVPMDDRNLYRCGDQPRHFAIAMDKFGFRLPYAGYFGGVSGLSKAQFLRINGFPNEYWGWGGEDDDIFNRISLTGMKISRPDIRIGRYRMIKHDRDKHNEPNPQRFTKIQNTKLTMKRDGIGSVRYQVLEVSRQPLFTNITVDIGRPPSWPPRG

Chain of Bovine milk β1,4Gal-transferase (Sigma), mainly representing β4Gal-T1 (bovine) (P08037 78-402 limits assumed): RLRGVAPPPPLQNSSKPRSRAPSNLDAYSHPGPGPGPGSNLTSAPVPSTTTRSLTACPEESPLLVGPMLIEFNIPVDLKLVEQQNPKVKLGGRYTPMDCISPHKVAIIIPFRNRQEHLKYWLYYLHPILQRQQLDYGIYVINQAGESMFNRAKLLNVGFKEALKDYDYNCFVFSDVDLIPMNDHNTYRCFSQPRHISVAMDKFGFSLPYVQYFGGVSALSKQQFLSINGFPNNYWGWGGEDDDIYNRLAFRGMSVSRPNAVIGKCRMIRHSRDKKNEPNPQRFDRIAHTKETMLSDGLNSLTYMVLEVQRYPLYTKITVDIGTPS

In the case of α-lactalbumin, the concentration of a-lactalbumin to achieve maximum activity with Glc [1] is reported as 0.1 mg/mL and the concentration of a-lactalbumin to achieve maximum activity with Glc [2] is reported as 0.4 mg/mL.
